In patent US20260139048A1 (NANJING LEGEND BIOTECH, published 2026):
Where two headings read alike, the source gives them in different places.

Columns and labels:
[1] = target: T1, His-tagged human TIGIT (human, UniProt Q495A1 22-141); assay: SPR experiment 3, IgG from HEK293 supernatant captured
T1 construct: SPR analyte; also called human TIGIT protein; not shown: His tag
T1 sequence: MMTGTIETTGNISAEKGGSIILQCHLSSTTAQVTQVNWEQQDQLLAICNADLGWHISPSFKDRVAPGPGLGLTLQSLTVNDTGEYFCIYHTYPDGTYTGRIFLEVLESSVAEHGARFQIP

[2] = target: T1, His-tagged human TIGIT; assay: SPR experiment 3, IgG from HEK293 supernatant
[3] = target: T1, His-tagged human TIGIT; assay: SPR experiment 2, IgG from HEK293 supernatant captured
[4] = target: T1, His-tagged human TIGIT; assay: SPR experiment 4, IgG from HEK293 supernatant captured
[5] = target: T2, His-tagged cynomolgus TIGIT (cynomolgus, UniProt A0A7N9I9V4 89-209); assay: SPR (Biacore T200), antibody captured, His-tagged TIGIT analyte
T2 construct: SPR analyte; also called cynomolgus TIGIT protein; not shown: His tag
T2 sequence (A0A7N9I9V4 entry or part of it): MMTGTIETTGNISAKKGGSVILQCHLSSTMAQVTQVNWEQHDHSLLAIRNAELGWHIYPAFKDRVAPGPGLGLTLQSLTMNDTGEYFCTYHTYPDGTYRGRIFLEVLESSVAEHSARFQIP

[6] = target: T1, His-tagged human TIGIT; assay: as above
[7] = target: T1, His-tagged human TIGIT; assay: SPR experiment 2, IgG from HEK293 supernatant captured; remark: listed apart in the source
[8] = target: T1, His-tagged human TIGIT; assay: SPR experiment 1, IgG from HEK293 supernatant captured
[9] = target: T3, human TIGIT expressed on CHO-K1 cells (human, UniProt Q495A1 22-244); assay: flow cytometry on CHO-K1 cells expressing human TIGIT
T3 construct: whole, on cells; also called human TIGIT-CHO-K1 cells; human TIGIT over-expressing cell line
T3 sequence (looked up): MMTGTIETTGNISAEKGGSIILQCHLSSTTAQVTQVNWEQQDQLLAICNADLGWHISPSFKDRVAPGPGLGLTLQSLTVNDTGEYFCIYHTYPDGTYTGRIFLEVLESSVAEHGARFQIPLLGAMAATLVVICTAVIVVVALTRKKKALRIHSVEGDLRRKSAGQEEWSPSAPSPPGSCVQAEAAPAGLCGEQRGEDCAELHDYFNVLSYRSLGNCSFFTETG

[10] = target: T4, TIGIT on TIGIT-over expressing NFAT-Luc/Jurkat effector cells (GenScript reporter cell line) (UniProt Q495A1 22-244, limits assumed); assay: cell-based or functional assay
T4 sequence (looked up): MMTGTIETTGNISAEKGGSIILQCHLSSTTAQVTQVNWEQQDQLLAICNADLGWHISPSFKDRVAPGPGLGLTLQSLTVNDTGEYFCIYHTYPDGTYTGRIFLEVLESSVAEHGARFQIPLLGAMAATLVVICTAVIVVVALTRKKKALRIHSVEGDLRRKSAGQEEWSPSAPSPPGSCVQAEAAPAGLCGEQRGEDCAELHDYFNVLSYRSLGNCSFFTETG

[11] = target: T5, cynomolgus TIGIT expressed on CHO-K1 cells (cynomolgus, UniProt A0A7N9I9V4 89-312); assay: flow cytometry on CHO-K1 cells expressing cynomolgus TIGIT
T5 construct: whole, on cells; also called cynomolgus TIGIT over-expressing cell line
T5 sequence (A0A7N9I9V4 entry or part of it): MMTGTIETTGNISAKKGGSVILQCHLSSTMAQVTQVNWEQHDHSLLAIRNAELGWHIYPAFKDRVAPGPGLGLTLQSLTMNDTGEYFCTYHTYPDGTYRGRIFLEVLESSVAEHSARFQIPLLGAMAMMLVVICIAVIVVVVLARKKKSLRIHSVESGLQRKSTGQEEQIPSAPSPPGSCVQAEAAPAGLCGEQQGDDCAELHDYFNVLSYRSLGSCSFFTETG

[12] = target: T3, human TIGIT expressed on CHO-K1 cells; assay: flow cytometry competition: biotinylated CD155-Fc on human TIGIT-CHO-K1 cells
[13] = target: T5, cynomolgus TIGIT expressed on CHO-K1 …; assay: flow cytometry on CHO-K1 cells expressing cynomolgus TIGIT; remark: listed apart in the source
[14] = target: T3, human TIGIT expressed on CHO-K1 cells; assay: flow cytometry competition: biotinylated CD155-Fc on human TIGIT-CHO-K1 cells; remark: listed apart in the source
[15] = target: T3, human TIGIT expressed on CHO-K1 cells; assay: flow cytometry on CHO-K1 cells expressing human TIGIT; remark: listed apart in the source
[16] = target: T2, His-tagged cynomolgus TIGIT; assay: SPR (Biacore T200), antibody captured, His-tagged TIGIT analyte; remark: listed apart in the source
[17] = target: T1, His-tagged human TIGIT; assay: as above; remark: listed apart in the source
[18] = target: T4, TIGIT on TIGIT-over expressing …; assay: cell-based or functional assay; remark: listed apart in the source
[19] = target: T1, His-tagged human TIGIT; assay: SPR experiment 2, IgG from HEK293 supernatant captured; remark: listed apart in the source
[20] = target: T5, cynomolgus TIGIT expressed on CHO-K1 …; assay: flow cytometry on TIGIT over-expressing CHO-K1 cells

B1: reshaped TIGIT-3 antibody 3VH3 + 3VL1 (antibody, V domains shown)
VH: EVQLVESGGGLVQPGGSLRLSCAASGFTFSSYGMSWVRQAPGKGLELVATIKSDGGSTNLPDSVKGRFTISRDNSKNTLYLQMNSLRAEDTAVYYCVRGYFDYWGQGTTVTVSS
VL: DIQMTQSPSSLSASVGDRVTITCKASQDVKTAVAWYQQKPGKVPKLLIYWSSTRHTGVPSRFSGSGSGTDFTLTISSLQPEDVATYYCQQYYSTPYTFGGGTKVEIK
notes: Full-length IgG, tested as HEK293 supernatant
- Kd [1]: 36 nM
- koff [1]: 0.0076 s⁻¹
- kon [1]: 210000 M⁻¹ s⁻¹
- fold affinity decrease [2]: ~100 fold

B2: reshaped TIGIT-3 antibody 3VH3.M4 + 3VL (antibody, V domains shown)
VH: EVQLVESGGGLVQPGGSLRLSCAASGFTFSSYGMSWVRQAPGKGLELVATIKSSGGSTNLADSVKGRFTISRDNSKNTLYLQMNSLRAEDTAVYYCVRGYFDYWGQGTTVTVSS
VL: DIVMTQSHKFMSTSVGDRVSITCKASQDVKTAVAWYQQKPGQSPKLLIYWSSTRHTGVPDRFTGSRSLTDHTLTISSVQAEDLALYYCQQYYSTPYTFGGGTKLELK
notes: as for B1
- Kd [3]: 0.36 nM
- koff [3]: 0.00016 s⁻¹
- kon [3]: 450000 M⁻¹ s⁻¹

B3: reshaped TIGIT-3 antibody 3VH3.M4 + 3VL5.M6 (antibody, V domains shown)
VH: EVQLVESGGGLVQPGGSLRLSCAASGFTFSSYGMSWVRQAPGKGLELVATIKSSGGSTNLADSVKGRFTISRDNSKNTLYLQMNSLRAEDTAVYYCVRGYFDYWGQGTTVTVSS
VL: DIQMTQSPSSLSASVGDRVTITCRASQDIKTALAWYQQKPGQSPKLLIYWASTRQSGVPSRFSGSGSGTDFTLTISSLQPEDVATYYCQQYYSTPYTFGGGTKVEIK
notes: as for B1
- Kd [4]: 0.5 nM
- koff [4]: 0.00043 s⁻¹
- kon [4]: 870000 M⁻¹ s⁻¹

B4: TIGIT-19 chimeric antibody (antibody, human IgG1, kappa, V domains shown)
VH: QVQLQQPGPELVKPGTSVMLSCKASGYAFSRYSMYWVKQSHGKSLEWIAFIDPYNGGSTYNQRFRGKATLTVDKSSSTAYMHLNTLTSDDSAVYYCARGGDYGWYLGVWGAGTTVTVSS
VL: DIQMTQSPASLSASVGETVTITCRPSENIYTYLSWYQQKRGKSPQLLVYNAKTLPENVPSRFSGSGSGTQFSLKIDSLQPEDFGNYYCQHHYGNPLTFGAGTKLELKR
notes: also called 19VH + 19VL
- Kd [5]: 0.091 nM
- koff [5]: 6.6e-05 s⁻¹
- kon [5]: 730000 M⁻¹ s⁻¹
- Kd [6]: 0.071 nM
- koff [6]: 0.0001 s⁻¹
- kon [6]: 1.5e+06 M⁻¹ s⁻¹
- Kd [7]: 0.12 nM
- koff [7]: 0.00015 s⁻¹
- kon [7]: 1.2e+06 M⁻¹ s⁻¹
- Kd [8]: 0.071 nM
- koff [8]: 9.7e-05 s⁻¹
- kon [8]: 1.4e+06 M⁻¹ s⁻¹
- EC50 [9]: 0.311 nM
- Bottom (RLU) [10]: 47600 RLU
- EC50 [10]: 2.75 nM
- Top (RLU) [10]: 130000 RLU
- EC50 [11]: 0.524 nM
- IC50 [12]: 0.26 nM
- EC50 [13]: 1.05 nM
- IC50 [14]: 0.4 nM
- EC50 [15]: 0.41 nM
- Kd [16]: 0.032 nM
- koff [16]: 3.2e-05 s⁻¹
- kon [16]: 1e+06 M⁻¹ s⁻¹
- Kd [17]: 0.04 nM
- koff [17]: 5.9e-05 s⁻¹
- kon [17]: 1.5e+06 M⁻¹ s⁻¹
- Bottom (RLU) [18]: 11100 RLU
- EC50 [18]: 3.28 nM
- Top (RLU) [18]: 41600 RLU

B5: huTIGIT-6-4 (antibody, human IgG1, kappa, V domains shown)
VH: QVQLVQSGAEVKKPGASVKVSCKASGYTFTENAMHWVRQAPGQRLEWIGGINPNNAGTSYSQKFQGRATLTVDTSASTAYMELSSLRSEDTAVYYCTRSSYYRYDLDYWGQGTTVTVSS
VL: DIQMTQSPSSLSASVGDRVTITCQASQDIKTALAWYQQKPGKAPKLLIYSASYRYTGVPSRFSGSGSGTDFTFTISSLQPEDIATYYCHQHYTTPWTFGGGTKLEIKR
notes: Humanized IgG; also called 6VH6.M7 + 6VL1.M1
- EC50 [9]: 1.02 nM
- Bottom (RLU) [10]: 46800 RLU
- EC50 [10]: 14.8 nM
- Top (RLU) [10]: 128000 RLU
- EC50 [11]: 16.7 nM
- IC50 [12]: 1.17 nM
- Kd [16]: 260 nM
- koff [16]: 0.013 s⁻¹
- kon [16]: 47000 M⁻¹ s⁻¹
- Kd [17]: 0.58 nM
- koff [17]: 0.00019 s⁻¹
- kon [17]: 330000 M⁻¹ s⁻¹
- Kd [19]: 0.75 nM
- koff [19]: 0.00023 s⁻¹
- kon [19]: 300000 M⁻¹ s⁻¹
- fold EC50 on cynomolgus against human TIGIT cell line [20]: > 10 fold
